Assay: label from the status in PepcDB records

In the case of “MNTVPLKPQRLLSLDVFRGMTIVLMIFVNGQAAIDPYPIFEHVDWNGCTLADLVFPFFLFIVGLTSVISLKNQMERKAKTSLYSAIIERSVVLFLLGLFLNVFPHPIEFDSIRIYGILQRIAVCYLISAFIYLNTSIKTQFFIFLVLLLGYWIIMTQVPVPGYGANQLTKDGSWVSYFDQLFFSASHLYEKTYDPEGFLSTFTSIATTLSGVLAGSLLISPCNQFKKFYLLAGIGLLFLLLGWLWNMSFPINKNLWTSSYVLWTSGLALLAFAFCYLLIDRFGVKKWSVFFKVFGMNALFAFVFHVLLLKLQYAFKITTPDGSKMVLISYLKDYFFGGFSNHNAALLYSICFLFLNFLVVLILYKRNVFIRI”, the protein production is reported as “failed”.
For “MATEKLPPLERYIRMLELLTAFPDGLALSELSAMIELPKASAHRLIKTLQELELAATSSPGSATYVTGPRLRKLAFMSADAQWVVAILRPFLRELTQEMGETAFVARLEGASVRTIAFEAPETPWRGFILPGYEMHPNAAASAKAILAFQDAATLKRALREPFERLTPQTNLSKERLLEEYAAIRQSGVATCIGEIDEGLAAVAVPIEVGGAAGLYSLGLTGPMNRVMALGVERAAERMMAYAARMASGLSAGLSAESARAAGLS”, the protein production was “failed”.
In the case of “QSNVVIMQDPGGGYGDALRKVMYDPFEKETGIKVVTVQEARSGPRIKAQAEAGKAQWDLTFIFDQETKLLGDCCLADIDYSKLSESAHKTLAAMPDNLKRKKGVALQVIGVGLVYNKDKFKGDKAPQTWADFWDVKKFPGRRCMPAWPRFTFEAALMADGVTKDKLYPIDMDRALKKLKEIKPHVVKWWTTAAQPPQLILDGEADMCLAYTGSMSKLALEGAPIDLTFNQGFVYYDFFSIPKGAPNYDNALKLLSWRLDPKRAAQLTSTFPVALPSKVVFDAATDKNIARYWANNPENVAKAIEWSPDFWGAPSPAGNSTNEEYGQEKLNAMLAQ”, the protein production is reported as “not failed”.
In the case of “MSLFAELTASVNAVRPGRTRMRNYDMPLIVAASTLLLLGLLMVYSASIALADGPRYASYGRYYFVIRHGLFLTAGLLAAAVVLSVPIRVWQRLAVPLFMFALILLVAVLIPGIGREVNGAHRWIPLGPLNFQPSELMKLAALLYAADYTVRKQEHMQAFSRGFLPMACALGGVGMLLLLEPDLGAFMVIVAIAIGILFLGGINGKYFSSLLAVLVGTFLMLIWVSPWRRARLFAYLDPWNEANAYGSAYQLSHSLIALGRGEWFGVGLGASVEKLHYLPEAHTDFLMAVVGEELGFAGVMLVITLFAIIVYRGFDIGRQAIAMERTFAGLVAHGVAMWVGVQAFINMGVCLGLLPTKGLTLPLMSYGGSGIVMNLCALAMLIRVDVENRVMMRGGRV”, the protein production is reported as “failed”.
With “MRKLAAFLGLVGLLSLGLAQSAQEILDRVEKNLSTPWQATVQGRIQGPGGEEELLARVYALPQARLFRVEFLKPGSLEGNFTVITEKEVWNYLYLTNQLVISPREKAKIQGLGFAPQGLGDLKALSEQVDLRLEGEVRLPEGMAWKLVGRSKENQGFAAMELYILKADPRPLRFVFLDEKGKVLADLKVVEFKRTNLTEAQLKRYPKDAQVVRR” the protein production was “not failed”.
For “MSLTTSKTRKSGVAMTEKLELDPARTAIVLIEYQNEFTSDGGVLHGAVADVMQHTGMLANTVAVVDAARQAGVPIMHAPITFAEGYGELTRHPYGILKGVVDGKAFVKGTWGAAIVDELAPVNGDIVIEGKRGLDTFASTNLDFILRSKGVDTIVLGGFLTNCCVESTMRTGYERGFRVITLTDCVAATSQEEHNNAISYDFPMFSVPMTSADVIAALEGHHHHHH”, the protein production was “not failed”.
In the case of “MGGCPVRKRRRNGSKEGNHHSTQPKRNKRNPIFQDSQDTEFSWSDNERSSSRINIPERASGPEGNLNQIVTEPDANFPQFLHEGLSKPVYVINWFMSFGPEIKLNTSQQGRNQAV”, the protein production is reported as “failed”.
For “MSELQILIFNAAVFSILAVYHYWKNRKLNIAFYILAYYSICAWGALLYHEHELFHYMRGRETYSIIPFLYLIPVIFLFAYPIIRYDNTRITRIETLNSNFFINLVWILLFIQIVLYIILFPSFLKAILSSNIGDYRNDTYDESEIVQFPNYFFNILCRLYMGARNVVILIAAYGLLVIKTHRKLLKIFLVTSLCFPVYMFTAYASRAVMIMTFFFLVFIFVFLSVFMNVGLKKKIVSYLILILVPISSAFILISNSRFGNLATYMFYRYLGESFNNYNTHFFYELKGNTWGEAYFVFFRKLMGISSNFKTTREKWEWLDNITGVDTHVFYTFVGGLNIEFGFVGTIVIGLLLSFFMVKKMRPYNVLTLPKFIALGMLAYTLINGVFFFVLQGDWGNLEILFTLFFCFLFSKYRTRKYINK”, the protein production was “failed”.
For “MTAIDGQGKDQVIFVTKEEHETPSTVKQEEEDTNEDPKGKGLILPTGEINWDCPCLGGMASGVCGEQFKSAFTCFHFSQEEVKGSDCLEQFISMQECFHQHPELFPQDNNDLQTADPDQEHSSSISDFTTNKESDSLPTETDEIPTQLPVVS”, the protein production was “not failed”.
In the case of “MVSVGGDSVADSTVNQAKQSIRRSESITMERIVSFTLEEVPESIAKLEDKLFSYLLDLEGLASGRQRQTMSGEVGFGVLKAIDDQTIQDRLHW”, the protein production is reported as “failed”.
For “MEGQTHDAQNNVPEHDNPLMNVKNPSSNLFSKKDAQCLSVLCNGKWLQIVRSSPKVSCEASTCPSHILTKVGENYVAESEKMHKKVISFSSKTFSQGTLQFTMRANGTPHFVFKLENQKDVYVASLSSNVQDQNSYMIHLQRGESSASSSHLVGRINVSTLFSEKVLEREFVLFSSNGENLKIPRTRKNRGLSKKVVHAVKNERRTARLSRTSFIPDLGSWDEQFQAQNYDCLLKNKLPTNLETLAVVVKQETIEDEIGGWGLKFLKRSPMFQRSNDASETETSTSSISMNVVIPSGIHGGPEDGPSSLIERWKSQGNCDCGGWDLCCSLTLLKGQPRKDQYFELFIEVKLSFISSNTSIL”, the protein production was “failed”.
With “MDEKLVKEVIFSFREVQRKTHHVLAEEAANREITTTQLLAIRELQKESDLTLGELAERMKLGKSTVSGIVDRLVKAGFLKRTRNESNRRALSLELTEKGATKAAETYHVFFNRLEPILEIGEERLKEMLEMHQEIITILEREGARD” the protein production was “failed”.
With “ACDNDTEPGGTAVEKMAGDWWVTVNAFIDGKEVEDPFGAGHLQMSTYNTASNSETEMWLDDLGNFWEYKLKVNVNYAARTFSTTGFVDNVTYESKVKITDGKVLEKAATTPSGMPADSIVYMVQFDDDEDGLTYKVSGFRRTGFPADDF” the protein production was “not failed”.
For “MIKLQLKLQGSVSVQVNAGPLAYARAFLDDTNTKRYPDNKVKLLKEVFRQFVEACGQALAVNERLIKEDQLEY”, the protein production was “failed”.
For “MNFAGQPLQDGSLPRIGTGKDALSLLDLSDFVARHWRFIGLVTVFVMALALAYLAAAPSRYTAQTDMIIDTKRVTWTQSEFATENRMVEDASVESEIETTKSEKVALQVIRKLRLTEDPEFIGSGTGLRNRLYQLLDLDAPISPQLTPSELEARALSRVKDNLKVMRLGRSYIEQISFTSLVPEKAAVIANAFADAYIEDQIQAKFEATRRASEWLQQRIGELRQQASDAYRAVQDFKSSNSIIVSGDGKLASDLELDQLGISLAKARAETSQARAKLERITRVLELRQEKGSNEIPDPVVTDALSNPVITRLRQQYLDNQSKEAEWSSRYGAEHQAARNLRSEMANVRQAIWDEVSRIAESYRSEVQIAKTQEDSIDKRMIEVFQSSTGTRQAQVHLRELETAATTYRGIYETFLTRFTQSVQQQSFPSTEARVVTLASPPSVRSSPKTNLTLALAAISGLTLGILGAFARDRMSRRIHTRAQLETILGTSCLAIIPSFANPALTSQTSTSSSRLSRAVKQLLRKRDHVPGQPRERSQANSAAFEKINDVAPFSATAEALRHIKVAIDLSPGGGRVIGIVSARPGEGKTTICASFAAFLARSGARTLLIDGDLRNPSLSRTLGYKNKRGLLELVADQLQLSDLVVTDPVYKFDFLPSATEMKPINSADVLTSPSVKRMLKSAAGNYDYIIVDLPPILPVVDVKAAAHLFDAFVLVVEWGATMSDEVRSAVGVSRSLSERLLGAVLNKTDEDVMRRLEGYSYRSHHYYYYGAPKHENEQTKN”, the protein production was “failed”.
With “MDYFLLHGGGNADRQSGGVHRWLAGAIRELGMLVAETSGHDAFLEQIGAVHPEVVFVRFASSPARIDVPEHDQKLGEGTDAIGEATQLVAQLTRLFPGLPLVAVGSASDGRAMLAALRAGVKDFIDVDGAPAEAVRVVRRLLAERASAEPTRRGRVLAILGARPGVGTTTLASNLATLVRRTSGGDVMLLDLGQPLRDGALYLNVPANFHFVEAVRNLRRFDQVFVQTALSRHPNGLAVLPLPVSLAEMRDISFSEALGLLNRLRTFFDLQVVDLGGFNNIDFIAQLVKAADDVMLVTEQSVGAIVSAAELMQELKKREIDRERLHLILSKFDARLSLDAEQIGVRLEIPSVLTVPSRRRALVVASNQGAMLAETHPIDPYVRAIAGIVQTLGYTQPGERAPGVAGWMAGMRARLGERFRRKPTEPAELDLRTTERNAT” the protein production was “failed”.
With “MTQQDFRTKVDNTVFGVRATALIVQNHKLLVTKDKGKYYTIGGAIQVNESTEDAVVREVKEELGVKAQAGQLAFVVENRFEVDGVSYHNIEFHYLVDLLEDAPLTMQEDEKRQPCEWIDLDKLQNIQLVPVFLKTALPDWEGQLRHIHLEE” the protein production was “not failed”.
With “MGQFYCLHCDRYFSNVSVRDDHFKTKKHKKRVNMMMGQAPHSQLDADLAGGMGMPDNGPKLMSNLVFTELRKPETEDLPGMGQFNCLLCHRNFSNASVMDYHFKTKKHKKRVKKIERPAPHSQLDADLAGGMGMPDNGPKLMSA” the protein production was “not failed”.
In the case of “MATAFSSLRARLFALLLLALLLLLAPLAWLSAREAERAASEDLRRALYTRLYLLQAEGVQDEERLLLELFRLAQLFGGGVGFVLREGEARFTQLGDWPLPPGLPAALAAEGVYQGVFRGTLYVVLAQGGLAYGLAVPLEGVSGLGQRLLARYALWGGGLLLGVFLLAALALSWTLRPLRDLEKALRARAPEDLSPLPDPGLAELRPVVAALNALFARVGRLLAELAEKEEAARRFARHASHELRTPLTALKGYLEVLRRKNEPRALEGALREAGRMEALLAGLLRLSRLEALPPQRVPLDLRAFLEAQGLEVQGEGRVLADPELLALAVENVLENARRHGRLPVRAELSREGEGVWVWLVDAGPGFPEDLLPRVLEPFVHGGKGTGLGLALVAAVARAHGGRVRVENRGGAGVGLYLPLAPLKVSPGVPFGEGG”, the protein production is reported as “not failed”.
In the case of “MSVSVKGNEQLTSLLNDWYRAMLSQQVIKATNLKKKIDEKINKLSIEPDQEHQDQNLLLYYSLLEFRYKVLTDSLGIQQNSFDTISDYDMPTDQFLQFYYHFFKSIHSTFISNYTEAEEHYKLAEKILVAIPDEIEHAEFYYRIATFYHHTYNNLASIEYANKSRAIFSKYEGYEVKTAFCNSLLGGCCIYLKQYEQAEEYLHCAIDLLQKNREEDSLLYVKNTMGWLYSDQSMSTLAIRHLSEVTEKIPTHFKAIFLQAKEHYKLGEQSTASQLIDKGLQICREIHNEEYTHHFSILKKLNENIPLEELEKIIQEGILYFEEEELWEYVVEYAELFATKCRQLENHQKVSDYFHICYQARQKSIAKGVLK”, the protein production is reported as “failed”.

— a protein production outcome set (Wang et al. 2014)
